Assay results reported in US20080145369A1.

Tests used:
[1] = target: PCDGF cell surface receptors on the mink lung epithelial cell line CCL64 (mink); test: Scatchard analysis of 125I-PCDGF binding to CCL64 cells, high affinity class
[2] = target: PCDGF cell surface receptors on the mink lung epithelial cell line CCL64 (mink); test: Scatchard analysis of 125I-PCDGF binding to CCL64 cells, low affinity class
[3] = target: PCDGF receptor on breast cancer cells (MCF-7; AG-BC1); test: PCDGF binding to AG-BC1 cells against MCF-7 cells; method not stated

Kd [1]: 0.043 nM | Kd [2]: 3.9 nM | fold increase in binding against MCF-7 cells [3]: 10 fold
Substance: PC-cell-derived growth factor (PCDGF) (ligand)
